Results published in PMC4930934.

Experiments:
[1] = target: BMR–HFBI (diflavin reductase domain of P450 BM3 fused at its C-terminus to hydrophobin HFBI) (Bacillus megaterium | Trichoderma reesei) (UniProt P14779)
[2] = target: BMR–HFBI (diflavin reductase domain of P450 BM3 fused at its C-terminus to hydrophobin HFBI) (Bacillus megaterium | Trichoderma reesei) (UniProt P14779); remark: listed apart in the source
[3] = target: BMR–HFBI (diflavin reductase domain of P450 BM3 fused at its C-terminus to hydrophobin HFBI) (Bacillus megaterium | Trichoderma reesei) (UniProt P14779); remark: listed apart in the source

With “BMO–HFBI (monooxygenase domain of P450 BM3 fused at its C-terminus to hydrophobin HFBI) (from UniProt P14779 1-472; P52754 23-97)” as the substance, how does the coupling efficiency (product formed per NADPH consumed) in myristic acid hydroxylation, P450:reductase 1:1 (1 μM each) [1] read?
The coupling efficiency (product formed per NADPH consumed) in myristic acid hydroxylation, P450:reductase 1:1 (1 μM each) was 57.4%.

What about the coupling efficiency (product formed per NADPH consumed) in myristic acid hydroxylation, P450:reductase 1:5 (1 μM : 5 μM) [1] of the same substance?
Its coupling efficiency (product formed per NADPH consumed) in myristic acid hydroxylation, P450:reductase 1:5 (1 μM : 5 μM) is 92.7%.

And the conversion of myristic acid with cofactor regeneration, equimolar ratio (1:1 μM), time course 2-24 h (49% after 2 h, 78% after 6 h, 99% after 24 h) [2]?
Its conversion of myristic acid with cofactor regeneration, equimolar ratio (1:1 μM), time course 2-24 h (49% after 2 h, 78% after 6 h, 99% after 24 h) is 99%.

What about the conversion of myristic acid with cofactor regeneration, fivefold molar excess of reductase (1:5 μM), after 2 h [3] of the same substance?
Its conversion of myristic acid with cofactor regeneration, fivefold molar excess of reductase (1:5 μM), after 2 h is 97%.
